Data published in IntAct's records for PubMed 17428920.

B1: Insulin-induced gene 2 protein (Homo sapiens), Q9Y5U4 (parent)
chain: MAEGETESPGPKKCGPYISSVTSQSVNLMIRGVVLFFIGVFLALVLNLLQIQRNVTLFPPDVIASIFSSAWWVPPCCGTASAVIGLLYPCIDRHLGEPHKFKREWSSVMRCVAVFVGINHASAKVDFDNNIQLSLTLAALSIGLWWTFDRSRSGFGLGVGIAFLATVVTQLLVYNGVYQYTSPDFLYVRSWLPCIFFAGGITMGNIGRQLAMYECKVIAEKSHQE
partner: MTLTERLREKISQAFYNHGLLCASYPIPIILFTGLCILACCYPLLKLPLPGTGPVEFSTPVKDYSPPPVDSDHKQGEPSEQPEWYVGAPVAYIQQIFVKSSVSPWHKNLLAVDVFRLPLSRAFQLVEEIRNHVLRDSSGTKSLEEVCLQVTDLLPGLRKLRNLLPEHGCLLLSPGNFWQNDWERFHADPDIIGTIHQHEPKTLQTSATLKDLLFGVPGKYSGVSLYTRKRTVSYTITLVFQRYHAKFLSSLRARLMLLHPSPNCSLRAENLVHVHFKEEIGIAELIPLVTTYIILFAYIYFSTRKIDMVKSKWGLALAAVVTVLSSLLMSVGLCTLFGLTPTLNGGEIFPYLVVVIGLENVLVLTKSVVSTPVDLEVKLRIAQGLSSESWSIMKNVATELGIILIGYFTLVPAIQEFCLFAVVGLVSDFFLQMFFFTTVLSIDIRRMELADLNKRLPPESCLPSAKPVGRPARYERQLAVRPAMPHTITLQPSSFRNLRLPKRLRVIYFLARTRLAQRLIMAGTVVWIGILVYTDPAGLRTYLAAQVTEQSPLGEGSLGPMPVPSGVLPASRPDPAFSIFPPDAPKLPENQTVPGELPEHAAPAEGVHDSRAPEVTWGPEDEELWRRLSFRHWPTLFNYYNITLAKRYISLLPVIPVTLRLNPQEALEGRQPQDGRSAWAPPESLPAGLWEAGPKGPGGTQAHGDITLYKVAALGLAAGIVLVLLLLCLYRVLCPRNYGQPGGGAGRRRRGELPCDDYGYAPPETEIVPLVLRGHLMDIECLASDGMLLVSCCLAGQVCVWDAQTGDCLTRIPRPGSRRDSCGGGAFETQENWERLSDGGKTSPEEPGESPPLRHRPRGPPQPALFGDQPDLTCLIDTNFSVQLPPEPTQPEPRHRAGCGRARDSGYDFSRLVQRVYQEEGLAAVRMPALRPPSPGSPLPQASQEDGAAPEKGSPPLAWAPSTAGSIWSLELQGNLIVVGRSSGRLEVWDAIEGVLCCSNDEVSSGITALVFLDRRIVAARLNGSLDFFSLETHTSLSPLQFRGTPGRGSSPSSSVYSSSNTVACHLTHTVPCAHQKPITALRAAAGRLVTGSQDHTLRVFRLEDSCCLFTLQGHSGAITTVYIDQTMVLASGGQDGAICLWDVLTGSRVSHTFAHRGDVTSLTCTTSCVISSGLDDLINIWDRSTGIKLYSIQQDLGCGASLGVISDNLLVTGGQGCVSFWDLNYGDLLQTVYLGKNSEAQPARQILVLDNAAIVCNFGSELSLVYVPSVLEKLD

Variants of: B1
Conditions: with scap_crigr SCAP

| Variant | effect of a mutation on the interaction |
| --- | --- |
| MAEGETESPGPKKCGPYISSVTSQSVNLMIRGVVLFFIGVFLALVLNLLQIQRNVTLFPPDVIASIFSSAWWVPPCCGTASAVIGLLYPCIDRHLGEPHKFKREWSSVMRCVAVFVGINHASAKVDFDNNIQLSLALAALSIGLWWTFDRSRSGFGLGVGIAFLATVVTQLLVYNGVYQYTSPDFLYVRSWLPCIFFAGGITMGNIGRQLAMYECKVIAEKSHQE [T136A] | decreasing interaction strength |
| MAEGETESPGPKKCGPYISSVTSQSVNLMIRGVVLFFIGVFLALVLNLLQIQRNVTLFPPDVIASIFSSAWWVPPCCGTASAVIGLLYPCIDRHLGEPHKFKREWSSVMRCVAVAVGINHASAKVDFDNNIQLSLTLAALSIGLWWTFDRSRSGFGLGVGIAFLATVVTQLLVYNGVYQYTSPDFLYVRSWLPCIFFAGGITMGNIGRQLAMYECKVIAEKSHQE [F115A] | disrupting interaction strength |
